According to patent US20170158755A1 (PROTHENA BIOSCIENCES, published 2017):
Residue numbers refer to the chain shown, from its start.

T1: human LAMA4 G domain (LG1-5) displayed on 293 cells (human, UniProt Q16363 830-1821)
T1 construct: the vector's tags and membrane anchor are not written here; also called LAMA4-displaying human 293 cells; full length
T1 sequence: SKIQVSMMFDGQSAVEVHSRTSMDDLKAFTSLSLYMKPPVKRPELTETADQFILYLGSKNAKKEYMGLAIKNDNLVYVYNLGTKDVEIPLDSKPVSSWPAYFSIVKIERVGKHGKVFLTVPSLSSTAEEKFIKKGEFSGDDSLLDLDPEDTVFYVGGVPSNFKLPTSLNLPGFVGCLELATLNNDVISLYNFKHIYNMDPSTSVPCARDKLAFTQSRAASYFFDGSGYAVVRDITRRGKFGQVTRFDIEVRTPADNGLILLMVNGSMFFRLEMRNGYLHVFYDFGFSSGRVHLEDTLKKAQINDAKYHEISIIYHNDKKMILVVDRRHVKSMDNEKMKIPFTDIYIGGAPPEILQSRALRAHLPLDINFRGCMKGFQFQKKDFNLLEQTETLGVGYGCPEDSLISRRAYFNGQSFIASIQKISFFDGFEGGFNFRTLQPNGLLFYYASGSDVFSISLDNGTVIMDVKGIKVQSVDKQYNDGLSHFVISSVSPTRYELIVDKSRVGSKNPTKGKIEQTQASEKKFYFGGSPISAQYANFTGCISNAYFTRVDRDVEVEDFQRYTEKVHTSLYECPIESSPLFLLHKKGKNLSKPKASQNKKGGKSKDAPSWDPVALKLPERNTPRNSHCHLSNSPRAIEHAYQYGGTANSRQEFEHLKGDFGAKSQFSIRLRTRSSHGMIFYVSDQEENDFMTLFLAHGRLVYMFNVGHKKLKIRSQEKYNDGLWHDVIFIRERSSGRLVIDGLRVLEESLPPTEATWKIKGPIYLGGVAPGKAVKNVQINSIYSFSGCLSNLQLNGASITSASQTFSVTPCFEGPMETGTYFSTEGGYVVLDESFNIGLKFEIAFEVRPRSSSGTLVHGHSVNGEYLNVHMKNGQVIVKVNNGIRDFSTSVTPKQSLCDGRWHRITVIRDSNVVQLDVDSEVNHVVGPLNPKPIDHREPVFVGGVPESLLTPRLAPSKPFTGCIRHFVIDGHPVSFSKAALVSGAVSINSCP

T2: human LAMA4 LG1-3 modules displayed on 293 cells (human, UniProt Q16363 830-1430)
T2 construct: pDisplay construct on 293 cells; vector tags and anchor not written here
T2 sequence: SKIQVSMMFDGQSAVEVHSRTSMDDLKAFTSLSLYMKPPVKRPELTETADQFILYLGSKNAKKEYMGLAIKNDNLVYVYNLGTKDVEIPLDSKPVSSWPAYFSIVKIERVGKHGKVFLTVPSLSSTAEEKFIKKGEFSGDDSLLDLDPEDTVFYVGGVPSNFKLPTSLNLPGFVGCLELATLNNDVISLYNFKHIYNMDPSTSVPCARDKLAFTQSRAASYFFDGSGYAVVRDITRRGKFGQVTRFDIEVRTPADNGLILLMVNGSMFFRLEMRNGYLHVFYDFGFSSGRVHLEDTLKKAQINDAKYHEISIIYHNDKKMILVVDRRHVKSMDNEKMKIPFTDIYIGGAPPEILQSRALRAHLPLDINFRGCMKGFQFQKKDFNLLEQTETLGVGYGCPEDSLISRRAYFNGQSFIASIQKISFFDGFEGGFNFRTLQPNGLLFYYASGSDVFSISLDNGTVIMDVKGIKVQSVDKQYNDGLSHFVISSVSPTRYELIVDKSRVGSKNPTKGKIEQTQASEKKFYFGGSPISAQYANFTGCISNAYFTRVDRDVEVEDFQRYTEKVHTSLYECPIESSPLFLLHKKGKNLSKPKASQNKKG

T3: mouse MCAM-Fc fusion protein (mouse; human, UniProt Q8R2Y2 24-563)
T3 construct: extracellular domain; Made in house; also called mMCAM-Fc; 650-conjugated mouse MCAM-Fc; not shown: human IgG1 (Fc part of the fusion)
T3 sequence (looked up): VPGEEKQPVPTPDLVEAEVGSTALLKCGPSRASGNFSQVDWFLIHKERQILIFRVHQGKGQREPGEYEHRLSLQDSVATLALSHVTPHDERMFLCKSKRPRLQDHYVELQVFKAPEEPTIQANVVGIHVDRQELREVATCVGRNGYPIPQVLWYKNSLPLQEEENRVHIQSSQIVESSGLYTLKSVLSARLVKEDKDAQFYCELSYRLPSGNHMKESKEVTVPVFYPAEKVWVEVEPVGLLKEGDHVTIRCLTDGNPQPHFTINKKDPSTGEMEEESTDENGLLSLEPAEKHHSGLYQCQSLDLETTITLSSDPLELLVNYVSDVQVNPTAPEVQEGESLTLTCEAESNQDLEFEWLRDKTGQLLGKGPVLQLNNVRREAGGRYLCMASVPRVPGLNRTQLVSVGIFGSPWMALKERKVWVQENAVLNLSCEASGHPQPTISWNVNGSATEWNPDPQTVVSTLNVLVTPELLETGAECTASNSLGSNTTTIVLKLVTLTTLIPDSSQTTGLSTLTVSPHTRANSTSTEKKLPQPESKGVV

B1: 19C12 variant H1+ChiL (antibody, V domains shown)
VH: QVQLQQSGAELVKPGASVKISCKASGYAFSTYWMNWVKQAPGEGLEWIGQIYPGDGDTNYNGKFKGRVTLTADKSTSTAYMELSSLRSEDTAVYFCARSDGYYDYWGQGTTVTVSS
VL: NIVLTQSPASLAVSLGQRATISCRASESVDSYGTSFMHWYQQKPGQPPKLLICLASSLESGVPARFSGSGSRTDFTLTIDPVEADDAATYYCQQNNEDPPTFGAGTKLELKR
notes: Humanized heavy chain version 1 (Hu19C12VHv1) paired with the chimeric light chain; Human constant regions not specified
B2: 19C12 variant H2+ChiL (antibody, V domains shown)
VH: B1 VH with I20V, K38R, E43Q, L70I
VL: B1 VL
notes: Humanized heavy chain version 2 (Hu19C12VHv2) paired with the chimeric light chain; Human constant regions not specified
B3: H2L5 (antibody, V domains shown)
VH: B1 VH with I20V, K38R, E43Q, L70I
VL: DIVLTQSPASLAVSLGERATISCRASESVDSYGTSFMHWYQQKPGQPPKLLISLASSLESGVPARFSGSGSGTDFTLTISPLQAEDVATYYCQQNNEDPPTFGQGTKLEIK
notes: also called VHv2/VLv5; humanized 19C12 antibody H2L5; copies: 2 + 2
B4: H3L3 (antibody, V domains shown)
VH: B1 VH with Q1E, I20V, K38R, E43Q, L70I
VL: B3 VL with D1N, S53C, G72R, S80D, L82V, Q83E, V87A, Q104A
notes: also called VHv3/VLv3; humanized 19C12 antibody H3L3; copies: 2 + 2
B5: human LAMA4 LG4-5 modules displayed on 293 cells (ligand)
chain: RNSHCHLSNSPRAIEHAYQYGGTANSRQEFEHLKGDFGAKSQFSIRLRTRSSHGMIFYVSDQEENDFMTLFLAHGRLVYMFNVGHKKLKIRSQEKYNDGLWHDVIFIRERSSGRLVIDGLRVLEESLPPTEATWKIKGPIYLGGVAPGKAVKNVQINSIYSFSGCLSNLQLNGASITSASQTFSVTPCFEGPMETGTYFSTEGGYVVLDESFNIGLKFEIAFEVRPRSSSGTLVHGHSVNGEYLNVHMKNGQVIVKVNNGIRDFSTSVTPKQSLCDGRWHRITVIRDSNVVQLDVDSEVNHVVGPLNPKPIDHREPVFVGGVPESLLTPRLAPSKPFTGCIRHFVIDGHPVSFSKAALVSGAVSINSCP
notes: pDisplay construct on 293 cells; vector tags and anchor not written here

Assays:
recombinant laminin 411 [1] = molecular target: T4, recombinant laminin 411 (human, UniProt P07942 22-1786; P11047 34-1609, limits assumed); assay: flow cytometric blocking assay; antibody pre-incubated with 650-labeled laminin 411; blocked partner: human MCAM on CHO cells; MFI
T4 construct: also called LAMA4 in complex with its gamma1 and beta1 chains
T4 sequence (chain, as listed by the source limits assumed, chain 1 of 3): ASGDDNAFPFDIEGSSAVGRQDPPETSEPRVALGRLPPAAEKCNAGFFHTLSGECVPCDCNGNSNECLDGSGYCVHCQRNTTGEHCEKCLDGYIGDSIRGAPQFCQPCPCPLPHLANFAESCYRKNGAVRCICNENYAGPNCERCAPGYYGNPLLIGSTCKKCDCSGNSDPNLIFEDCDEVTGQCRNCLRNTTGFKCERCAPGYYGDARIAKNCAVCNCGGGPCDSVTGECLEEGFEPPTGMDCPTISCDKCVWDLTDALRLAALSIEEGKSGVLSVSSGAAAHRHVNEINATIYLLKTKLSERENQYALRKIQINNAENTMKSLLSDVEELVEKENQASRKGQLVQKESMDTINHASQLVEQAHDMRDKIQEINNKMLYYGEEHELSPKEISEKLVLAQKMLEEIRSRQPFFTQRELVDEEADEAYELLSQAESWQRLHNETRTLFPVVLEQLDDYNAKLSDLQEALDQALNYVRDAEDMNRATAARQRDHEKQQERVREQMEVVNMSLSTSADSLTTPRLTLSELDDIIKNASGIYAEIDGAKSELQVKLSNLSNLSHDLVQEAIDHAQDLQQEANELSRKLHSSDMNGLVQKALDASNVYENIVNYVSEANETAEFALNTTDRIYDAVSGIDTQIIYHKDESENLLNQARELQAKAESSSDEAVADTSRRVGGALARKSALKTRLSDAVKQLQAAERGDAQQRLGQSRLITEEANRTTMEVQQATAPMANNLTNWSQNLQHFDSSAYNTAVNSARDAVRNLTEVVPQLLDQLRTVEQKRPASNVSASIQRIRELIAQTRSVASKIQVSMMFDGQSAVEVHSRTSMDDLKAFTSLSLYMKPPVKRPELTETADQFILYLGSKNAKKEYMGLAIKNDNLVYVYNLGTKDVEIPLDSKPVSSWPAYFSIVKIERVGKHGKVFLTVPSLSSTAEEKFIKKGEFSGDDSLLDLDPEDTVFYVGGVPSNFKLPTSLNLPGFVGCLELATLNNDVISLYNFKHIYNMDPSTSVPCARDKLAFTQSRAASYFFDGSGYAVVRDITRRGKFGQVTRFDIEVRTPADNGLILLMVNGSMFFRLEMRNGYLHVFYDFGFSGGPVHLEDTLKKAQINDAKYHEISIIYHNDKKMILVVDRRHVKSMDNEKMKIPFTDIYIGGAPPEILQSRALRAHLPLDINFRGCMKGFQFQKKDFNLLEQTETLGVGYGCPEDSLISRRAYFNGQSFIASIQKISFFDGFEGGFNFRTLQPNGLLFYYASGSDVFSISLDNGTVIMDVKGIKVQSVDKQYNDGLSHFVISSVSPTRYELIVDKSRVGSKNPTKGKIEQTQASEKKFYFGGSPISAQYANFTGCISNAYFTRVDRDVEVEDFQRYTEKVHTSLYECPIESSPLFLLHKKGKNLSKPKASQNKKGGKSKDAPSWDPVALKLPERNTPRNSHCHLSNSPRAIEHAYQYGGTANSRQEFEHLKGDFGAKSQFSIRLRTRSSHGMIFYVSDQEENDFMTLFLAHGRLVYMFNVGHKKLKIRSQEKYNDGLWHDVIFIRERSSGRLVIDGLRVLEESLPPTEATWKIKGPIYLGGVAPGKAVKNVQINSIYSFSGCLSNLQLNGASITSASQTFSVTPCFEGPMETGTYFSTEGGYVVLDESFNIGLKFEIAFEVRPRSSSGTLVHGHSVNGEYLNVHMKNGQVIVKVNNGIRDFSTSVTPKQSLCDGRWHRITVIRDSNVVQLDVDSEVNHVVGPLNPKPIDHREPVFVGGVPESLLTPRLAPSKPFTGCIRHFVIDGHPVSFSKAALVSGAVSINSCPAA
T4 sequence (P07942 22-1786 limits assumed, chain 2 of 3): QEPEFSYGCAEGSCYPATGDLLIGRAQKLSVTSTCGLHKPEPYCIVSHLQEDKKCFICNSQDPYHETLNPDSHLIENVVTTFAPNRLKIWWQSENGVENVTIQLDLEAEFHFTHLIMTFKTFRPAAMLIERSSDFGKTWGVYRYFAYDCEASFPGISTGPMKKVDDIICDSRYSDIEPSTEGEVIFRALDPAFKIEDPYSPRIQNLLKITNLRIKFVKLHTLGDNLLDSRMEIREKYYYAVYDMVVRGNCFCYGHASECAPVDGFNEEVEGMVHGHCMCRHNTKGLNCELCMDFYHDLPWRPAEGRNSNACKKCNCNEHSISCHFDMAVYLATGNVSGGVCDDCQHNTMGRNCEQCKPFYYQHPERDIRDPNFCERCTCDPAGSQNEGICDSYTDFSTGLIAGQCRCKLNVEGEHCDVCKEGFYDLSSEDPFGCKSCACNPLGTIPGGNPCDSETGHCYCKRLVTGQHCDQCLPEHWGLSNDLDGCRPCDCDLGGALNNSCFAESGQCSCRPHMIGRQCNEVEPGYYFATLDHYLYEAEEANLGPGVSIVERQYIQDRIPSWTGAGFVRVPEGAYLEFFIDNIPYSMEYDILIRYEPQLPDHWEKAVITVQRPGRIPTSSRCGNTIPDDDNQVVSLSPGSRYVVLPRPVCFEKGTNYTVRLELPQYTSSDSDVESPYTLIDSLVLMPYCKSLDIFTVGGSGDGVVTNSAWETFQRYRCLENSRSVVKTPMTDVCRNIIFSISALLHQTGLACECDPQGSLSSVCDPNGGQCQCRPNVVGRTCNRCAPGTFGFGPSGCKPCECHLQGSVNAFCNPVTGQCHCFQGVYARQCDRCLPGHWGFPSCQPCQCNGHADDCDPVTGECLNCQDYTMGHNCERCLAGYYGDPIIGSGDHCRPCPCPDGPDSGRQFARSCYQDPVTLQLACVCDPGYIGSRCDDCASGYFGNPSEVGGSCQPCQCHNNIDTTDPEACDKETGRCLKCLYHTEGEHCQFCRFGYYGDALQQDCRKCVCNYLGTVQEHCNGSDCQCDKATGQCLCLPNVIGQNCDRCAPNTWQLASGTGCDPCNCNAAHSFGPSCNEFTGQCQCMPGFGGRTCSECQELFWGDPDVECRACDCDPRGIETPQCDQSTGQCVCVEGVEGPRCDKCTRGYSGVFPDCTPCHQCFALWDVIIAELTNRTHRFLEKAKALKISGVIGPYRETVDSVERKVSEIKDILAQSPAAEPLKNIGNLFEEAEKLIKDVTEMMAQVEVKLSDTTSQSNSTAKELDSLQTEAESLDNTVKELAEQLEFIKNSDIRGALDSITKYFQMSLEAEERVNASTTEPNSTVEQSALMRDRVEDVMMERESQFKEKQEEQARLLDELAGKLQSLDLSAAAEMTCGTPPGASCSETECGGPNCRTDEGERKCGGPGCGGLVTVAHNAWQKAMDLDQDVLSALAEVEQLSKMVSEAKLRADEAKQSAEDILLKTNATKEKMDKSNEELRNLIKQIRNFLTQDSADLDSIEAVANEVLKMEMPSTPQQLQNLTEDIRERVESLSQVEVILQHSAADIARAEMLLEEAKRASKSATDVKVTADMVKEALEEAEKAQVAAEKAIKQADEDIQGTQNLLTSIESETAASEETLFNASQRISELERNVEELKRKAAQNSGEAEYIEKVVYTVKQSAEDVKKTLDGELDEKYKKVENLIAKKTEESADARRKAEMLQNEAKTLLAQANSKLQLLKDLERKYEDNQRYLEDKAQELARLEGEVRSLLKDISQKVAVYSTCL
T4 sequence (P11047 34-1609 limits assumed, chain 3 of 3): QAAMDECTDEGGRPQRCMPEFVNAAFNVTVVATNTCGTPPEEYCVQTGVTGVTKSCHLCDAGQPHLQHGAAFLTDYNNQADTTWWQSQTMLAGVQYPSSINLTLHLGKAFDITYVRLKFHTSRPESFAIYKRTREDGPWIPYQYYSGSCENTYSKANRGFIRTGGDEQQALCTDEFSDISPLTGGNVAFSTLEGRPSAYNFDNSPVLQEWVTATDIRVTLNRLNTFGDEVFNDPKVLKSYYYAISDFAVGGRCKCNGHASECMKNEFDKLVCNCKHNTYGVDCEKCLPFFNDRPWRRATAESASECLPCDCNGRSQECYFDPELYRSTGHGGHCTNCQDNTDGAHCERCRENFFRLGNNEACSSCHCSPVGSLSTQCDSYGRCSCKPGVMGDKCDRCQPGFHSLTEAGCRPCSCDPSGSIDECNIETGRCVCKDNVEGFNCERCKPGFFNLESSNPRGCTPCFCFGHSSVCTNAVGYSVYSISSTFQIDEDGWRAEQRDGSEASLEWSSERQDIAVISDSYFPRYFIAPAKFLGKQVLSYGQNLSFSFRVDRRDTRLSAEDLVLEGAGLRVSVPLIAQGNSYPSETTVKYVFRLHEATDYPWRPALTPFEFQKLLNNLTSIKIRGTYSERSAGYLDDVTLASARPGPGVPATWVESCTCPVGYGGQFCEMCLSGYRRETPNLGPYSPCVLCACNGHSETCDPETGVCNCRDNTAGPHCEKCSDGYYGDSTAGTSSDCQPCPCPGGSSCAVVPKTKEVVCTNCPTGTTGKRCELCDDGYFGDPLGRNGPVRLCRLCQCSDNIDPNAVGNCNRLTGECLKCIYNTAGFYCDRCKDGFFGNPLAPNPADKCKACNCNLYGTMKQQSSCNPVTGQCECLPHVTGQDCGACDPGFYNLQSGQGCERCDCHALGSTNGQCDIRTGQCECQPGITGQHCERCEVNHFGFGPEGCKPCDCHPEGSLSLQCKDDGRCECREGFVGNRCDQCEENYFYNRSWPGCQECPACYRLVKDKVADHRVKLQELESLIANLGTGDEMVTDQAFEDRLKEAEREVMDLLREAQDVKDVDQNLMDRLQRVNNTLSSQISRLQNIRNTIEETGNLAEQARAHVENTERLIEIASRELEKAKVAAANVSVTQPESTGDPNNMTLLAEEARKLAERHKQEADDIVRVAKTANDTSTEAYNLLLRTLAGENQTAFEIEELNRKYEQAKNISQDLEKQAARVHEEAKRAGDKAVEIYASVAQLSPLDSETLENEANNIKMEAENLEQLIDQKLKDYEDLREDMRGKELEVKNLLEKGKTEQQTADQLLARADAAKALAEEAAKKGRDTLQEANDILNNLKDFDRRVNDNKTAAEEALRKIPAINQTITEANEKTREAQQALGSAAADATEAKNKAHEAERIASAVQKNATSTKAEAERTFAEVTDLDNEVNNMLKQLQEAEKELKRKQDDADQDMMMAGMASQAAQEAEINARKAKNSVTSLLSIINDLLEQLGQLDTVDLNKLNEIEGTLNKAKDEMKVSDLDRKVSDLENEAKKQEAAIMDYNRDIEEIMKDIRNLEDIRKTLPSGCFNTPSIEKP
Description: (§1) The 19C12 variants chimeric 19C12, H1+chiL, and H2+chiL, and buffer alone were tested for their ability to block the binding of LAMA4 to its ligand MCAM (as shown in FIG. 11) and to bind LAMA4-displaying cells (full length, LG1-3, LG4-5, or untransfected control) (as shown in FIG. 12). […] To test LAMA4 binding capacity, serially diluted antibodies were pre-incubated with LAMA4-displaying human 293 cells, followed by anti-human-650 secondary antibody incubation. Fluorescent signal was assessed via flow cytometric analyses and plotted as mean fluorescence intensity (MFI).
Following two washes with FACS buffer (1% FBS in PBS), cells were resuspended with 650-conjugated anti-pan-laminin antibody (1:1000; Novus Biologicals) and incubated for 20 min at 4° C., and washed again. Cells were analyzed for pan-laminin reactivity by flow cytometry using standard procedures.

[2] = molecular target: T1, human LAMA4 G domain (LG1-5) displayed …; assay: flow cytometry on 293 cells displaying LAMA4 G-domain variants, anti-human-650 secondary antibody; MFI
Description: as §1

[3] = molecular target: B5; assay: as above
Description: as §1

[4] = molecular target: T2, human LAMA4 LG1-3 modules displayed on …; assay: as above
Description: as §1

[5] = molecular target: T1, human LAMA4 G domain (LG1-5) displayed …; assay: flow cytometry on LAMA4-displaying 293 cells, anti-human-650 secondary antibody; MFI (binding experiment by paragraph 395 and by the plot; the legend paragraph 38 calls it blocking)
Description: (§2) Position L49 of the 19C12 variable light chain was substituted with other amino acids, such as I, T, A, M, Q, or E (see Table 6) because they may confer improved stability relative to substitution to a cysteine. The 19C12 cysteine replacement variants were tested for their ability to bind LAMA4-displaying cells (FIG. 13) and to block the binding of LAMA4 to its ligand MCAM (FIG. 14). To test LAMA4 binding capacity, serially diluted antibodies were pre-incubated with LAMA4-displaying human 293 cells, followed by anti-human-650 secondary antibody incubation. […] Fluorescent signal was assessed via flow cytometric analyses and plotted as mean fluorescence intensity (MFI). The 19C12 cysteine replacement variants retain their MCAM blocking and LAMA4 binding activity to varying degrees.

recombinant laminin 411 [6] = molecular target: T4, recombinant laminin 411; assay: flow cytometric blocking assay; antibody pre-incubated with 650-labeled laminin 411; blocked partner: human MCAM on CHO cells; MFI (blocking experiment by paragraph 395 and by the 411 / no 411 controls on the sheet; the legend paragraph 39 calls it binding)
Description: as §2

[7] = molecular target: T3, mouse MCAM-Fc fusion protein; assay: flow cytometry on 293 cells displaying LAMA4 G-domain variants; % binding
Excerpt: LGde1 has a full-length G domain (i.e., LG1-5) with LG1 deleted, LGde2 has a full-length G domain with LG2 deleted, and LGde3 has a full-length G domain with LG3 deleted. Recombinant MCAM-Fc protein was able to specifically bind 293 cells expressing LAMA4 variants LG1-5, LG1-3, and LGde 1 (LG23), but not 293 cells expressing LAMA 4 variants LG4-5, LGde2 (LG13), or LGde3 (LG12).

| Binder | binding result (recombinant laminin 411 [1]) | binding result [2] | binding result [3] | binding result [4] | binding result [5] | other results |
| --- | --- | --- | --- | --- | --- | --- |
| B1 | binds | binds | no binding (tested: 5 ug/ml) | binds |  |  |
| B2 | binds | binds | no binding (tested: 5 ug/ml) | binds |  |  |
| B3 |  |  |  |  | binds |  |
| B4 |  |  |  |  | binds | binding result (recombinant laminin 411 [6]): binds |
| B5 |  |  |  |  |  | binding result [7]: no binding |
